US20240392039A1 (Regeneron, published 2024)

B1: H4H12175P (antibody, V domains shown)
VH: EVQLVESGGGVVQPGGSLRLSCAASGFTFNDYAMHWVRQAPGKGLEWVSLISGDGGNTYYADSVKGRLTISRDNSKNSLYLQMNSLRTEDTALYYCAKDKGWNFGYFDLWGRGTLVTVSS
VL: DIQMTQSPSSLSTSVGDRVTITCRASQNIDTYLNWYQQKPGKAPKLLIYDASSLQSGVPSRFSGSGSGTDFTLTITSLQPEDFATYYCQQNDNILHPLTFGGGTKVEIK
B2: H4H12170P (antibody, IgG4, V domains shown)
VH: QVQLVESGGGVVQPGRSLRLSCAASGFTFSGYGMHWVRQAPGKGLEWVALIWLDGSNDYYADSVKGRFTISRDNSKNTLYLQMNRLRAEDTAVYYCARDGPVAAIPDYWGQGTLVTVSS
VL: DIQMTQSPSTLSASVGDRVTITCRASQSISRWLAWYQLKPGKAPKLLIYKASSLESGVPSRFSGSGSGTDFTLTISSLQPDDFATYYCQQYNTYSYTFGQGTKLEIK
B3: H4H12177P2 (antibody, V domains shown)
VH: EVQLVESGGGVVQRGESLRLSCSASDFIFKDYAMYWVRQIPGKGLEWISLISGDGDTTWYGDSVKGRFTISRDNNENSLFLQMNDLRTEDTAMYYCARDMGWNFFQLQYWGQGTLVTVSS
VL: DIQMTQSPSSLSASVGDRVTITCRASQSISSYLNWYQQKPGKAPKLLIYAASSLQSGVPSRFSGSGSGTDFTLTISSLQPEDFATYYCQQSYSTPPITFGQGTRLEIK
B4: H4H12171P (antibody, V domains shown)
VH: EVQLVESGGGVVRPGGSLRLSCAASGFTFDEYGMTWVRQVPGKGLEWVSGITWNGGFTDYTDSVKGRFTSSRDNAKNSLYLQMNSLRAEDTALYYCARDGYSSSWGAYDIWGQGTMVTVSS
VL: DIQMTQSPSSLSASVGDRVTITCRASQSISTYLNWYQQKPGKAPKLLIYAASSLQSGVPLRFSGSGSGTDFTLTISSLQPEDFASYFCQQSYSTPYTFGQGTKLEIK
B5: H4H12176P2 (antibody, V domains shown)
VH: EVQLVESGGGLVQPGGSLRLSCAASGFHSNRYWMDWVRQAPGKGLEWVANIKQDGSEENYVDSVKGRFTISRDNAKNSLYLQMNSLRAEDTAVYYCARDRSTSWVPYWFFDLWGRGTLVTVSS
VL: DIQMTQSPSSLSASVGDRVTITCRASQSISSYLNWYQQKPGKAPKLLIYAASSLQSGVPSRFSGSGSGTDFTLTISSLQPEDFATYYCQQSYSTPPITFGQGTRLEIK
B6: H4H12176P2xH4H12177P2 bispecific antibody (bispecific antibody, V domains shown)
VH 1: B5 VH
VH 2: B3 VH
VL: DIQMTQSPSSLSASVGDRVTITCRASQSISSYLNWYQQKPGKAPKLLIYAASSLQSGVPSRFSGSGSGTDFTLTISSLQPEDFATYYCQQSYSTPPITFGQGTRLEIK
B7: H4H12161P (antibody, V domains shown)
VH: EVQLVESGGDLVQPGGSLRLSCAASGFTFSDHYMDWVRQAPGKGLDWIGRIRNKANAYNTEYAASVRGRFTISRDDSQNLLYLQMNSLKTDDTAVYYCVRVWNYAYFAMDVWGQGTTVTVSS
VL: DIQMTQSPSSLSASVGDRVTITCRSSQNIGIFLNWYQQKPGEAPNLLISAASSLHSGVPSRFSGSGSGTDFTLTIGSLQPEDFATYYCQQTYNTIFTFGPGTKVDIK

Key:
Assay in all cases: cell-based or functional assay
human complement C5 [1] = target: T1, human complement C5 (human, UniProt P01031 19-1676)
human complement C5 [2] = target: T1, human complement C5; remark: listed apart in the source
human complement C5 [3] = target: T1, human complement C5; remark: listed apart in the source

T1 sequence (P01031 19-1676 limits assumed): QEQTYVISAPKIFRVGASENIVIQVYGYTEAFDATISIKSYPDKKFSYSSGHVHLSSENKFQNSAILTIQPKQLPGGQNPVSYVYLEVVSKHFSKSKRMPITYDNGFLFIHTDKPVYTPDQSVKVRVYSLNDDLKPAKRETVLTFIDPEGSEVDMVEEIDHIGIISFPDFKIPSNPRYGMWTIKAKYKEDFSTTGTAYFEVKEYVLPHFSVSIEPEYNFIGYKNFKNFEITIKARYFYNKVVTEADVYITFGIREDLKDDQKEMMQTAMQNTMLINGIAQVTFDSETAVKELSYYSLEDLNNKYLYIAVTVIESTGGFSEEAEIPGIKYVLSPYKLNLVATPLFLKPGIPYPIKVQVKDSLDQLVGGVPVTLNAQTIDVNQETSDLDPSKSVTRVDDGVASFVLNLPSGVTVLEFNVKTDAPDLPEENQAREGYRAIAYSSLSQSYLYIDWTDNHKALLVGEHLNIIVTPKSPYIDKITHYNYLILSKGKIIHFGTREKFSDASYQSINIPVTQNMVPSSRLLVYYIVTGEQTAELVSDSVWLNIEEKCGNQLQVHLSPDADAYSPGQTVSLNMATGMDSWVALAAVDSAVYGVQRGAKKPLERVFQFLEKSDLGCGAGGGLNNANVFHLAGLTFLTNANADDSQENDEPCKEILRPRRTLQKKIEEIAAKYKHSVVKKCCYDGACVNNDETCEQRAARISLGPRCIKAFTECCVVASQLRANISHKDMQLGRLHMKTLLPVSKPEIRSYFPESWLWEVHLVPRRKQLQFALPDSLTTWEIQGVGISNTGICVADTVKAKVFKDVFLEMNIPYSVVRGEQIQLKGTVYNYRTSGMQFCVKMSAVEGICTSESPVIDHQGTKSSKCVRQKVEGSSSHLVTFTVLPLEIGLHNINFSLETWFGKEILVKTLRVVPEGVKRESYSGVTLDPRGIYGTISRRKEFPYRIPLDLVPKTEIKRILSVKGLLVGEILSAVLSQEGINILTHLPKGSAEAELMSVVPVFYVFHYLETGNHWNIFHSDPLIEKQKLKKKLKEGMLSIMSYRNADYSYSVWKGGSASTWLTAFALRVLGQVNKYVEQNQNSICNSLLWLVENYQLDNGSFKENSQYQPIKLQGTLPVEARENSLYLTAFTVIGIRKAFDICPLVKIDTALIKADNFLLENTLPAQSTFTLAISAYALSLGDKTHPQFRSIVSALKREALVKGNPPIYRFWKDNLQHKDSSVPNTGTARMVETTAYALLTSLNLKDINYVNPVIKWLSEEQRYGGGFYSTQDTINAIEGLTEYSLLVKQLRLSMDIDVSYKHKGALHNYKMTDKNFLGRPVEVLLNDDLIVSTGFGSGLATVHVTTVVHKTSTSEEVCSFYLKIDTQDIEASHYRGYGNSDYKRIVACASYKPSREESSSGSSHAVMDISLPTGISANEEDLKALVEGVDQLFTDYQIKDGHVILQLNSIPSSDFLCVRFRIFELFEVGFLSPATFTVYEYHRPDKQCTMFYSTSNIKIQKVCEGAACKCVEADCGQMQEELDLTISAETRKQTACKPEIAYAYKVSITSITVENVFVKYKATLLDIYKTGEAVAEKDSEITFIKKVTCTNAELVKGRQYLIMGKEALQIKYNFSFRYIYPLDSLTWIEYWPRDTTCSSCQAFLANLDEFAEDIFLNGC

Row | Binder | % Max Inh. of Lysis (alternative pathway hemolysis of rabbit RBC, 25% NHS, 30 min) (human complement C5 [1]) | % Max Inh. of Lysis (alternative pathway hemolysis, 25% NHS, 30 min) (human complement C5 [2]) | mAb/C5 ratio that blocked hemolysis to close to zero (25% C5-deficient NHS, 145 nM C5 add-back) (human complement C5 [3])
1 | B1 | 77.8% |  | 
2 | B2 | 88.7% |  | 
3 | B3 | 76.2% | 42.6% | 
4 | B4 | 36.6% |  | 
5 | B5 | 62.8% | 27.4% | 
6 | B6 |  | 98.1% | ~1.29 mAb/C5 molar ratio
7 | B7 | 59.2% |  | 
